Ends that are not written are not given here.

Assay [1] deals with hyperactive human GLP-1 receptor variant (human). The experiment in a line: cell-based or functional assay.
In assay [2] the target is wild-type human GLP-1 receptor (human, UniProt P43220 24-463). The experiment in a line: cell-based or functional assay.

B1: GLP-1 (7-20) amide (peptide)
peptide: HAEGTFTSDVSSYL-NH2
Turning to B1, in assay [1], the “cAMP production (radioimmunoassay), EC50” value amounted to 24 µM and the “cAMP production, fold potency increase against the same peptide at the wild type receptor” value turned out to be 10 fold. In addition, the “cAMP production (radioimmunoassay), half maximal excitatory concentration (EC50)” value in assay [2] came out at 240 µM.

B2: GLP-1 (7-20) carboxy-terminal tethered with biphenylalanine (peptide)
peptide: HAEGTFTSDVSSYL-biphenylalanine
modifications: not fully specified
With B2, in assay [1], the “cAMP production (radioimmunoassay), EC50” value was 2 µM and the “cAMP production, fold higher potency against GLP-1 (7-20) amide -bpa at the hyperactive receptor” value turned out to be 10 fold. In addition, in assay [2], the “cAMP production (radioimmunoassay), EC50” value is 11 µM and the “cAMP production, fold potency increase against GLP-1 (7-20) amide without biphenylalanine” value was 22 fold.

(Values after patent publication US20100041612A1 (published 2010).)
